Source: patent US20060223116

How the values were obtained:
[1] = system: T1, truncated GST-fusion T-bet protein, C-terminal fragment
T1 sequence (Q9UL17 whole entry, species assumed, looked up): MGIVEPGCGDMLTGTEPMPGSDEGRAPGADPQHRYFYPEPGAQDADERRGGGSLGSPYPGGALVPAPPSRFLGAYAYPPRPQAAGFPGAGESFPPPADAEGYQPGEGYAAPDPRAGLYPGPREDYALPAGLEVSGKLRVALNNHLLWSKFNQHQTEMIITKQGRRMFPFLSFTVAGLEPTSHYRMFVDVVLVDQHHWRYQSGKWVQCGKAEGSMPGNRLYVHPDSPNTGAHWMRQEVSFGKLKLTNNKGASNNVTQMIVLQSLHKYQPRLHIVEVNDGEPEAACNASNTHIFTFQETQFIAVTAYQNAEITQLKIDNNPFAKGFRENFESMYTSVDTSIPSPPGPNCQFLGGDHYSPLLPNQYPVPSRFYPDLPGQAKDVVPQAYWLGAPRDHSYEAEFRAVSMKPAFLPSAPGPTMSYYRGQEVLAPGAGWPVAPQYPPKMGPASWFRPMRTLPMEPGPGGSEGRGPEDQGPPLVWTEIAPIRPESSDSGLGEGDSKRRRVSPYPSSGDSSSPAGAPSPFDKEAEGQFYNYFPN

[2] = system: T2, truncated GST-fusion T-bet protein, N-terminal fragment
T2 sequence (Q9UL17 whole entry, species assumed, looked up): T1 sequence (Q9UL17 whole entry, species assumed, looked up)

For “RLK-MYC (resting lymphocyte kinase, MYC-tagged)”, the “in vitro kinase assay (32P-ATP, autoradiography)” value [1] was “both the N and C terminal fragments but not the DNA binding domain, could be phosphorylated by the Tec kinases, ITK and RLK” and the “in vitro kinase assay (32P-ATP, autoradiography)” value [2] was “both the N and C terminal fragments but not the DNA binding domain, could be phosphorylated by the Tec kinases, ITK and RLK”.
